Assay results reported in patent US20200308299A1, “ANTI-GPC-1 ANTIBODY” (National University Corporation Kochi University, priority 2017, published 2020).

Tests used:
TE14 cells = assay: ADC assay combining anti-GPC-1 antibody and MMAF binding secondary antibody, TE14 cells; assay type: cell-based
Method in brief: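 TE14 […] cells (2000/well, RPMI1640 + 10% FBS) exposed to anti-GPC1 primary antibody (final 0–1.0 nM) plus 2 μg/ml MMAF-conjugated anti-mouse Fc Fab secondary for 6 days at 37° C, 5% CO2. Viability measured by CellTiter-Glo ATP luminescence.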

pancreatic cancer PDX = assay: In vivo efficacy test on GPC1 ADC using pancreatic cancer PDX in NOG mice; set-up: species or system mouse; conditions: 1, 3, 10 mg/kg iv day 0, 4, 8, 12
Excerpt: Pancreatic cancer PDX (Patient-derived tumor xenograft) refers to residual tissue from pathological analysis of cancer tissue upon pancreatic cancer surgery from a pancreatic cancer patient. This Example used a pancreatic cancer model created by subcutaneously grafting in superimmunodeficient mice such as NOG mice. While human tumor hardly survives in SCID mice after grafting, NOG mice have more severe immunodeficiency than SCID mouse, so that human tumor is more likely to survive. For this reason, a PDX model has an environment that is closer to human tumor than a mouse model to which a cell strain is grafted. Thus, information obtained with a PDX model is useful in evaluating drug efficacy.
FIG. 24 schematically depicts the test in this Example. Specifically, pancreatic cancer PDX was subcutaneously grafted into 6 week old female NOG mice. […] The tumor volume and body weight were measured on day 0, day 4, day 8, day 12, day 16, day 20, day 24, and day 28.

BxPC3 cell strain = assay: In vivo efficacy test on GPC1 ADC using pancreatic cancer cell strain BxPC3 in SCID mice; set-up: species or system mouse
Experimental: Specifically, 5.0×10^6 cells of the BxPC3 cell strain were subcutaneously grafted into female SCID mice. […] The tumor volume and body weight were measured on day 0, day 4, day 8, day 12, day 16, day 20, day 24, day 28, day 32, and day 36.
After subcutaneous tumorigenesis of BxPC3, (1) PBS, (2) control ADC at 10 mg/kg, and (3) GPC1-ADC at 1 mg/kg, 3 mg/kg, and 10 mg/kg were administered once into the tail vein. The tumor was extracted after 24 hours. After deparaffinization of a section of a paraffin embedded tissue, the slice was dehydrated with alcohol.
Immunohistochemical staining on Phospho-Histon H3 (Ser10) was performed using an anti-Phospho-Histon H3 (Ser10) antibody (Cell Signaling Technology: #9701) and ChemMate Envision kit HRP 500T (Dako: K5007).

[1] = tested on: GPC1 positive esophageal cancer cell strains (TE4, TE5, TE6, TE8, TE9, TE10, TE11, TE14, TE15); assay: In vitro ADC assay, GPC1 positive esophageal cancer cell strains; assay type: cell-based; conditions: 144 hours of culture
Experimental: Preparation of a conjugate of mouse anti-Glypican-1 mAb (01a033), mouse IgG2a (biolegend #400224) as a control, and mc-vc-PAB-MMAF was commissioned to MORADEC. An anticancer agent was conjugated to a cysteine residue via a cleavable linker. The DAR (drug-antibody ratio) was as follows. GPC1-CL-MMAF DAR=3.8, mouse IgG2a-CL-MMAF DAR=4.1.
(1) The cells were seeded on Thermo Fisher Scientific's 96-well white plate (model no.: 136101) (90 μl cell suspension). RPMI1640+10% FBS+100 U/ml penicillin+100 μg/ml streptomycin was used as the medium. The cells were seeded in 60 wells, and 100 μL of medium was added to 36 wells, and cultured in a 5% CO2 incubator at 37° C. (2) The next day, 10 μL of ADC was added to the cells (total amount: 100 μL). (3) After 144 hours of culture, a CellTiter-Glo™ Luminescence Cell Viability Assay reagent (Promega) was added and mixed at 100 μL/well. (4) Measurements were taken with a plate reader. (5) Analysis was conducted with GraphPad Prism 6.
The IC50 values were calculated from the following equation (Hossain M M, Hosono-Fukao T, Tang R, Sugaya N, van Kuppevelt T H, Jenniskens G J, Kimata K, Rosen S D, Uchimura K (2010) Direct detection of HSulf-1 and HSulf-2 activities on extracellular heparan sulphate and their inhibition by PI-88. Glycobiology 20(2): 175-186.)
IC50=10^(Log [A][B]×(50−C)/(D−C)+Log [B]) […]

[2] = primary antibody plus MMAF secondary antibody

Molecule | ADC activity (TE14 cells; primary antibody plus Fab-aMFc-CL-MMAF secondary antibody 2 μg/ml, 6 days) | EC50 values against TE14 cells (TE14 cells; [2]) | antitumor effect on TE14 (TE14 cells; [2]) | antitumor effect (tumor volume, tumor weight day 28) (pancreatic cancer PDX) | tumor volume (BxPC3 cell strain; 3 mg/kg iv day 0, 4, 8, 12) | tumor volume (BxPC3 cell strain; 10 mg/kg iv day 0, 4, 8, 12) | change in the body weight (BxPC3 cell strain; any dosage tested (1, 3, 10 mg/kg)) | antitumor effect (tumor volume, tumor weight day 36) (BxPC3 cell strain; iv day 0, 4, 8, 12, anti-GPC1 ADC 1, 3, 10 mg/kg (all groups), control ADC 10 mg/kg) | G2/M phase arrest in tumor tissue (Phospho-Histon H3 (Ser10) staining) (BxPC3 cell strain; single tail vein dose 1, 3, 10 mg/kg, tumor extracted after 24 hours) | effect of suppressing cell growth [1]
clone 01a033 (antibody) heavy: QVQLKQSGPELVKPGASVKISCKASGYSFTGYYMHWVKQSPEKSLEWIGEINPSTGDTTYNQKFKAKATLTVDKSSSTAYMQLKSLTSEDSAVYYCAREKRDDGVFAYWGQGTLVTVSSAKTTAPSVYPLAPVCGDTTGSSVTLGCLVKGYFPEPVTLTWNSGSLSSGVHTFPAVLQSDLYTLSSSVTVTSSTWPSQSITCNVAHPASSTKVDKKIEPRGPTIKPCPPCKCPAPNLLGGPSVFIFPPKIKDVLMISLSPIVTCVVVDVSEDDPDVQISWFVNNVEVHTAQTQTHREDYNSTLRVVSALPIQHQDWMSGKEFKCKVNNKDLPAPIERTISKPKGSVRAPQVYVLPPPEEEMTKKQVTLTCMVTDFMPEDIYVEWTNNGKTELNYKNTEPVLDSDGSYFMYSKLRVEKKNWVERNSYSCSVVHEGLHNHHTTKSFSRTPGK light: DIVMSQSPKSMSMSVGERVALSCKASENVGTYVSWYQQKPEQSPKLLIYGASNRYTGVPDRFTGSGSATDFTLTISSVQAEDLADYYCGQSYSYPLTFGAGTKLELKRADAAPTVSIFPPSSEQLTSGGASVVCFLNNFYPKDINVKWKIDGSERQNGVLNSWTDQDSKDSTYSMSSTLTLTKDEYERHNSYTCEATHKTSTSPIVKSFNRNEC | highest ADC activity | excellent EC50 values | particularly potent antitumor effect | – | – | – | – | – | – | –
GPC1 ADC (conjugate) heavy: QVQLKQSGPELVKPGASVKISCKASGYSFTGYYMHWVKQSPEKSLEWIGEINPSTGDTTYNQKFKAKATLTVDKSSSTAYMQLKSLTSEDSAVYYCAREKRDDGVFAYWGQGTLVTVSSAKTTAPSVYPLAPVCGDTTGSSVTLGCLVKGYFPEPVTLTWNSGSLSSGVHTFPAVLQSDLYTLSSSVTVTSSTWPSQSITCNVAHPASSTKVDKKIEPRGPTIKPCPPCKCPAPNLLGGPSVFIFPPKIKDVLMISLSPIVTCVVVDVSEDDPDVQISWFVNNVEVHTAQTQTHREDYNSTLRVVSALPIQHQDWMSGKEFKCKVNNKDLPAPIERTISKPKGSVRAPQVYVLPPPEEEMTKKQVTLTCMVTDFMPEDIYVEWTNNGKTELNYKNTEPVLDSDGSYFMYSKLRVEKKNWVERNSYSCSVVHEGLHNHHTTKSFSRTPGK light: DIVMSQSPKSMSMSVGERVALSCKASENVGTYVSWYQQKPEQSPKLLIYGASNRYTGVPDRFTGSGSATDFTLTISSVQAEDLADYYCGQSYSYPLTFGAGTKLELKRADAAPTVSIFPPSSEQLTSGGASVVCFLNNFYPKDINVKWKIDGSERQNGVLNSWTDQDSKDSTYSMSSTLTLTKDEYERHNSYTCEATHKTSTSPIVKSFNRNEC | – | – | – | exhibited an antitumor effect | tumor volume was significantly reduced | tumor volume was significantly reduced | significant change in the body weight was not observed | significant antitumor effect | resulted in G2/M phase arrest | exhibits an effect of suppressing cell growth
